{"source": "the supplement of paper PMC10724198", "note": "± gives the standard deviation of the averaged measurements.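 Note: PSI is a weighted mean of sequencing reads over stability bins, variants kept only with over 10 reads, mCherry proximal and sfGFP distal, peptide attached via GGGS linker.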", "data": [{"system": "Saccharomyces cerevisiae", "assay": "protein stability index of tFT-peptide fusion (C-terminal peptide) (PSI (0-1 scale)); higher = more stable (slower turnover)", "details": "genetic background: wild type; temperature: 30 C", "procedure": "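Multiplexed protein stability (MPS) profiling in S. cerevisiae. Random 12-aa peptides (tFT-X12 library) are fused to the C-terminus of a sfGFP-mCherry tandem fluorescent timer, after mCherry and a GGGS linker. Cells are FACS-sorted into 8 mCherry/sfGFP bins and deep-sequenced. The protein stability index (PSI) is the read-weighted bin average, scaled from 0 (unstable) to 1 (stable). Only peptides with >10 reads are reported; cells were grown at 30 °C in SC-His with glucose.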", "values": [{"sequence": "DAPLGDLRAYTT", "protein stability index": "0.747 ± 0.028"}, {"sequence": "DAYLGKRESRLW", "protein stability index": "0.615 ± 0.07"}, {"sequence": "DCSCRRSISVLV", "protein stability index": "0.54 ± 0.024"}, {"sequence": "DCVSLFRVPRVA", "protein stability index": "0.612 ± 0.028"}, {"sequence": "DCWAGWGLCGWG", "protein stability index": "0.748 ± 0.044"}, {"sequence": "DDAVTHTLWVSE", "protein stability index": "0.692 ± 0.012"}, {"sequence": "DDDHRKITGTSR", "protein stability index": "0.707 ± 0.091"}, {"sequence": "DDFQVFCSNGMG", "protein stability index": "0.708 ± 0.018"}, {"sequence": "DDGRRRAERGGG", "protein stability index": "0.685 ± 0.047"}, {"sequence": "DDSSSFPSLLSF", "protein stability index": "0.753 ± 0.069"}, {"sequence": "DDSVGKLFYCLF", "protein stability index": "0.7 ± 0.03"}, {"sequence": "DEDIHQTIGKKG", "protein stability index": "0.716 ± 0.056"}, {"sequence": "DEIRGERETKGR", "protein stability index": "0.656 ± 0.036"}, {"sequence": "DEMNEGHVPPGV", "protein stability index": "0.718 ± 0.071"}, {"sequence": "DERLNGWERGDV", "protein stability index": "0.698 ± 0.07"}, {"sequence": "DFSPPSPLPLPL", "protein stability index": "0.721 ± 0.01"}, {"sequence": "DFVLSASIGFTR", "protein stability index": "0.673 ± 0.035"}, {"sequence": "DGFWGGASHQGW", "protein stability index": "0.699 ± 0.0089"}, {"sequence": "DGHSAAAFCVRG", "protein stability index": "0.748 ± 0.1"}, {"sequence": "DGPSPAASPPRF", "protein stability index": "0.757 ± 0.095"}, {"sequence": "DGSGPSWGRKGR", "protein stability index": "0.6942 ± 0.0043"}, {"sequence": "DGSLTMTRTGFR", "protein stability index": "0.704 ± 0.021"}, {"sequence": "DGVAMCGLKASL", "protein stability index": "0.643 ± 0.1"}, {"sequence": "DGWTLCRVGCVG", "protein stability index": "0.652 ± 0.061"}, {"sequence": "DHVSVFSFVCFL", "protein stability index": "0.633 ± 0.015"}, {"sequence": "DICFGLLPPWPA", "protein stability index": "0.755 ± 0.057"}, {"sequence": "DICSNSGRQRFL", "protein stability index": "0.685 ± 0.013"}, {"sequence": "DIERSAAPRLLL", "protein stability index": "0.727 ± 0.042"}, {"sequence": "DIIRKKNKQGRI", "protein stability index": "0.702 ± 0.035"}, {"sequence": "DILLPFQFLDDF", "protein stability index": "0.6927 ± 0.00039"}, {"sequence": "DILRSGVYDVCK", "protein stability index": "0.7251 ± 0.00083"}, {"sequence": "DITKNGKSKMLK", "protein stability index": "0.664 ± 0.051"}, {"sequence": "DIWEFYNNLYSS", "protein stability index": "0.719 ± 0.013"}, {"sequence": "DKGTMNRARGGS", "protein stability index": "0.683 ± 0.024"}, {"sequence": "DKKNIRIYNKTL", "protein stability index": "0.669 ± 0.042"}, {"sequence": "DKLLTYTLGARI", "protein stability index": "0.69 ± 0.016"}, {"sequence": "DLAIPPPRPRFF", "protein stability index": "0.701 ± 0.013"}, {"sequence": "DLHCRSAILALL", "protein stability index": "0.594 ± 0.034"}, {"sequence": "DLLCLWEFPSIP", "protein stability index": "0.731 ± 0.12"}, {"sequence": "DLPRLGLPRRAC", "protein stability index": "0.63 ± 0.047"}, {"sequence": "DLQACGATSKAS", "protein stability index": "0.683 ± 0.059"}, {"sequence": "DLSDPGHSLSIL", "protein stability index": "0.68 ± 0.055"}, {"sequence": "DLTPLSSSRLPP", "protein stability index": "0.652 ± 0.04"}, {"sequence": "DMPIVVDGSLVR", "protein stability index": "0.684 ± 0.027"}, {"sequence": "DNLFSPTLLWEL", "protein stability index": "0.6674 ± 0.0034"}, {"sequence": "DNSDIKKGARRI", "protein stability index": "0.707 ± 0.014"}, {"sequence": "DNSSLGSIGTDI", "protein stability index": "0.645 ± 0.046"}, {"sequence": "DPAPSPTGMCTR", "protein stability index": "0.688 ± 0.016"}, {"sequence": "DPLSPLPPPPPP", "protein stability index": "0.635 ± 0.14"}, {"sequence": "DPPLSGRAKGPH", "protein stability index": "0.709 ± 0.02"}, {"sequence": "DPRAGLGLLELT", "protein stability index": "0.644 ± 0.067"}, {"sequence": "DQFRLLQYWEAS", "protein stability index": "0.72 ± 0.048"}, {"sequence": "DQTPRWQRCTRQ", "protein stability index": "0.733 ± 0.12"}, {"sequence": "DQVGLVLSDLIY", "protein stability index": "0.7272 ± 0.00085"}, {"sequence": "DREKGGLREADQ", "protein stability index": "0.669 ± 0.035"}, {"sequence": "DREKRKSGGERR", "protein stability index": "0.647 ± 0.039"}, {"sequence": "DRGSGRFVRGGL", "protein stability index": "0.664 ± 0.083"}, {"sequence": "DRKDGVSVSVGY", "protein stability index": "0.675 ± 0.05"}, {"sequence": "DRLGFGPVSRID", "protein stability index": "0.665 ± 0.064"}, {"sequence": "DRPPYTPHPPYP", "protein stability index": "0.7521 ± 0.0073"}, {"sequence": "DRPSPGLALGGP", "protein stability index": "0.7314 ± 0.0023"}, {"sequence": "DRRNNRLIRRNQ", "protein stability index": "0.7174 ± 0.0045"}, {"sequence": "DRSRESSMSLPD", "protein stability index": "0.711 ± 0.0076"}, {"sequence": "DRSRSPCPCSSP", "protein stability index": "0.6898 ± 0.0022"}, {"sequence": "DSCPGAAGGRGG", "protein stability index": "0.642 ± 0.043"}, {"sequence": "DSGTIWFPTHFV", "protein stability index": "0.7151 ± 0.0044"}, {"sequence": "DSGVAVVLVGCV", "protein stability index": "0.529 ± 0.013"}, {"sequence": "DSPASHWSVKSL", "protein stability index": "0.638 ± 0.043"}, {"sequence": "DSTTGALILLPV", "protein stability index": "0.692 ± 0.021"}, {"sequence": "DTDIHRKRTRQV", "protein stability index": "0.7 ± 0.037"}, {"sequence": "DTIQFLQCYRPI", "protein stability index": "0.655 ± 0.035"}, {"sequence": "DTSRGDWEVFLI", "protein stability index": "0.713 ± 0.061"}, {"sequence": "DTYKDSHLNRRI", "protein stability index": "0.664 ± 0.022"}, {"sequence": "DVCFIRRRYKKI", "protein stability index": "0.669 ± 0.041"}, {"sequence": "DVERKKIKIARQ", "protein stability index": "0.714 ± 0.047"}, {"sequence": "DVHNRSPNRAPE", "protein stability index": "0.671 ± 0.042"}, {"sequence": "DVNTGYHFLRDL", "protein stability index": "0.6757 ± 0.0015"}, {"sequence": "DVRLGSQGSFRW", "protein stability index": "0.705 ± 0.01"}, {"sequence": "DVRYQSLRRSGF", "protein stability index": "0.725 ± 0.028"}, {"sequence": "DVWVLAANSSLG", "protein stability index": "0.758 ± 0.1"}, {"sequence": "DWGGRRVTEEEG", "protein stability index": "0.641 ± 0.029"}, {"sequence": "DYLSSPLSSPSP", "protein stability index": "0.667 ± 0.066"}, {"sequence": "DYSTLFVSVADP", "protein stability index": "0.667 ± 0.0069"}, {"sequence": "EAGMGVGRCGTG", "protein stability index": "0.728 ± 0.01"}, {"sequence": "EARMGGGRCGTG", "protein stability index": "0.684 ± 0.008"}, {"sequence": "EAWRQGRAGRGP", "protein stability index": "0.6148 ± 0.0034"}, {"sequence": "ECGGAVALSDRA", "protein stability index": "0.7672 ± 0.0018"}, {"sequence": "ECPYFSHTPVAV", "protein stability index": "0.644 ± 0.032"}, {"sequence": "ECVERYLFGEGA", "protein stability index": "0.71403 ± 0.00042"}, {"sequence": "ECVGSSKVYMLL", "protein stability index": "0.677 ± 0.092"}, {"sequence": "ECYLYGSMDGFI", "protein stability index": "0.588 ± 0.036"}, {"sequence": "EDVEGVWVKGCE", "protein stability index": "0.725 ± 0.17"}, {"sequence": "EEAGETAGGRRE", "protein stability index": "0.648 ± 0.093"}, {"sequence": "EEGGEVREGKQA", "protein stability index": "0.702 ± 0.019"}, {"sequence": "EEHVIQNIKCKN", "protein stability index": "0.738 ± 0.037"}, {"sequence": "EELGRGLESLGL", "protein stability index": "0.699 ± 0.076"}, {"sequence": "EEPVVSNPPLLA", "protein stability index": "0.688 ± 0.033"}, {"sequence": "EERNNQRKKRKG", "protein stability index": "0.709 ± 0.038"}]}]}
